Measurements as given in US20210317231A1 (BYONDIS B V, published 2021).

T1: human 5T4 oncofoetal antigen (human, UniProt Q13641 32-420)
T1 construct: whole, on cells; also called hu 5T4; human 5T4 antigen
T1 sequence (looked up): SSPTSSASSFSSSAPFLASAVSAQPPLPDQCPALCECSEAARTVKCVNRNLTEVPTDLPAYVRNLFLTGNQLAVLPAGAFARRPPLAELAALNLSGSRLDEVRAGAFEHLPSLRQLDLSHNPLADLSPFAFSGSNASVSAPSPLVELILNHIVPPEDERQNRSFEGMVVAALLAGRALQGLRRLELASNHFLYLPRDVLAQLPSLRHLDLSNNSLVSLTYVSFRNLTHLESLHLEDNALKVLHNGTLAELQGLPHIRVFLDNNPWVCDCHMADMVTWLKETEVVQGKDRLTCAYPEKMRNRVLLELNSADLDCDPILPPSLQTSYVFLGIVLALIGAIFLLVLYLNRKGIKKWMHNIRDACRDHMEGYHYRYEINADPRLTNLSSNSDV

T2: cynomolgus monkey 5T4 antigen (cynomolgus monkey, UniProt Q4R8Y9 35-420)
T2 construct: whole, on cells; also called cyno 5T4
T2 sequence (looked up): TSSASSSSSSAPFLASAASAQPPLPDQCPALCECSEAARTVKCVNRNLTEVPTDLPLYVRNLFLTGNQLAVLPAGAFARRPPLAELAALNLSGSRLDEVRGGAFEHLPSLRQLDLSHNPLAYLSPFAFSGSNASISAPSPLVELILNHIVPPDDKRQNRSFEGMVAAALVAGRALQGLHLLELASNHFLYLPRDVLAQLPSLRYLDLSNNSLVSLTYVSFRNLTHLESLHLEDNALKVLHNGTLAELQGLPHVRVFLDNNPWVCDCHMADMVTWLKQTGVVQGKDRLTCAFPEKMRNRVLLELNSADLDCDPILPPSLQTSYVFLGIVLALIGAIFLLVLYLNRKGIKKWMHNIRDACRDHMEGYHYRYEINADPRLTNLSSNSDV


How the values were obtained:
[1] = molecular target: T1, human 5T4 oncofoetal antigen; test: flow cytometry, PA-1 cells
Protocol: (§1) 17 antibodies were selected and affinity to 5T4 antigen was measured using MDA-MB-468 cells, PA-1 cells and Chinese Hamster Ovary (CHO) mammalian cells expressing human or cyno 5T4 antigen (Table 2). In the current application the utilized CHO cells are referred to as CHOZN as these CHO cells expressing human or cyno 5T4 antigen were obtained using the CHOZN® Platform of Sigma-Aldrich. CHOZN cells (SAFC) were transiently transfected, using an Amaxa nucleofector device (Lonza) according to the manufacturer's instructions. Standard, commercially available mammalian expression vectors (SAFC, Life Technologies) were used, which contained the full length human and cyno 5T4 antigen coding sequence (according to accession number NP 006661.1 and Q4R8Y9 respectively), preceded by a human CMV promoter. Transiently transfected CHOZN cells were cultured according the manufacturer's instructions, before being used in antibody binding studies. The 17 selected antibodies are characterised by the amino acid sequences according to the following table (Table 1).
(§2) MDA-MB-468 cells, PA-1 cells or CHOZN cells expressing human or cyno 5T4 antigen (100,000 cells/well in a 96-well plate) were washed three times with ice-cold FACS buffer (1×PBS (Lonza) containing 0.2% v/w BSA (Sigma-Aldrich, St. Louis, Mo.)) and 0.02% v/w NaN3 (Sigma-Aldrich), followed by the addition of a concentration range of each primary mAb (50 μl/well) diluted in ice-cold FACS buffer. After an incubation of 30 minutes at 4° C., cells were washed three times with ice-cold FACS buffer and 50 μl/well secondary mAb (AffiniPure F(ab′)2 fragment Goat-anti-human IgG-APC, 1:6,000 dilution, Jackson Immuno Research) was added. After 30 minutes at 4° C., cells were washed twice and resuspended in 150 μl FACS buffer. Fluorescence intensities were determined by flow cytometry (BD FACSVerse, Fanklin Lakes, N.J.) and indicated as the median fluorescence intensity (MFI). Curves were fitted by nonlinear regression using the sigmoidal dose-response equation with variable slope (four parameters) in GraphPad Prism (version 5.01/6.01 for Windows, GraphPad, San Diego, Calif.). EC₅₀ values were calculated as the concentration in μg/ml that gives a response half way between bottom and top of the curve, when using a 4 parameter logistic fit.

[2] = molecular target: T1, human 5T4 oncofoetal antigen; test: flow cytometry, MDA-MB-468 cells
Protocol: as §1, §2

[3] = molecular target: T2, cynomolgus monkey 5T4 antigen; test: flow cytometry, CHOZN cells expressing cyno 5T4
Protocol: as §2

[4] = molecular target: T1, human 5T4 oncofoetal antigen; test: flow cytometry, CHOZN cells expressing hu 5T4
Protocol: as §1, §2

[5] = molecular target: T2, cynomolgus monkey 5T4 antigen; test: flow cytometry, CHOZN cells expressing cyno 5T4; remark: listed apart in the source
Protocol: as §1, §2

Row | EC50 [1] [µg/mL] | EC50 [2] [µg/mL] | fold improvement of binding compared to H8 on cyno 5T4 [3] [fold] | EC50 [4] [µg/mL] | EC50 [5] [µg/mL] | Binder
1 | 0.03 | 0.07 | 32 | 0.13 | 0.14 | chimeric anti-5T4 monoclonal antibody 825 (antibody, human IgG1, V domains shown, also called clone 825) VH: QSVEESGGRLVTPGTPLTLTCTVSGIDLSSYGMGWVRQAPGKGLEYIGIISRNSVTYYATWAKGRFTISKTSTTVDLKMTSPTTEDTATYFCARRATYSGALGYFDIWGPGTLVTVSF VL: GYDMTQTPASVSAAVGGTVTINCQASENIYSTLAWYQQKPGQPPKVLIYDAFDLASGVPSRFKGSGSGTEYTLTISGVQSDDAATYYCQQGYSGTNVDNAFGGGTEVVVK
2 | 0.03 | 0.1 | 32 | 0.27 | 0.15 | chimeric anti-5T4 monoclonal antibody 789 (antibody, human IgG1, V domains shown, also called clone 789) VH: QSVEESGGRLVTPGTPLTLTCTASGFSLSSYWMSWVRQAPGKGLEWIGIIAGRGSTYYASWAKGRCTISKTSTTVDLKITSPTTEDTAAYFCARVSSIYYTFNLWGQGTLVTVSS VL: AQVLTQTPSSVSAAVGGTVTINCQSSQSVYSNNELSWYQQKPGQPPKLLIYYASTLASGVPSRFKGSGSGTQFTLTISGVQSDDAATYYCQGSYYSGSGWYYAFGGGTEVVVK
3 | 0.04 | 0.08 | 32 | 0.21 | 0.21 | chimeric anti-5T4 monoclonal antibody 843 (antibody, human IgG1, V domains shown) VH: QSLEESGGRLVTPGTPLTLTCTASGFSLNNAYMNWVRQAPGKGLEWIGIINTYGSTYFATWAKGRFTFSKTSTTVDLKITSPTTEDTATYFCARAYAPFSTYSHYYGMDLWGPGTLVTVSS VL: DVVMTQTPSSVSAAVGGTVTIKCQASESIGSWLSWYQQKPGQPPKLLIYEASKLTSGVPSRFKGSGSGTEYTLTISDLESADAATYYCQYTDYGSNYLGTFGGGTEVVVK
4 | 0.05 | 0.13 | 32 | 0.19 | 0.13 | chimeric anti-5T4 monoclonal antibody 834 (antibody, human IgG1, V domains shown) VH: QSVEESGGRLVTPGTPLTLTCTVSGFSLSTYSMSWVRQAPGKGLEWIGVISRGGSAYYASWAKGRFTISKTSTTVDLKVTSPTTEDTATYFCARGAISSGYYVYDGMDLWGPGTLVTVSS VL: DIVMTQTPGSVEAAVGGTVTIKCQASESISSYLAWYQQKPGQPPKFLIYSASTLASGVPSRFKGSGSGTEFTLTISDLESADAATYYCQCTDYGSDYMGAFGGGTGVVVK
5 | 0.08 | 0.09 | 32 | 0.17 | 0.18 | chimeric anti-5T4 monoclonal antibody 835 (antibody, human IgG1, V domains shown) VH: QSVEESGGRLVTPGTPLTLTCTVSGIDLSSGAMGWVRQAPGKGLEWIGLISSSPITYYANWARGRFTISKTSTTVDLKITSPTTADTATYFCARGYDDYGEIWFNIWGPGTLVTVSL VL: AIEMTQSPPSLSASVGETVRIRCLAGEDIYSSISWYQQKPGKPPTLLIYGASNLESGVPPRFSGSGSGTDYTLTIGGVQAEDAATYYCLGGWSYSSSLTFGAGTKVEIK
6 | 0.04 | 0.14 | 32 | 0.22 | 0.17 | chimeric anti-5T4 monoclonal antibody 868 (antibody, human IgG1, V domains shown) VH: QSVEESGGRLVTPGTPLTLTCTASGFSLSDYTMGWVRQAPGKGLEWIGIINGYGSTYYANWAKGRFAISKTSTTVDLKITSPATEDTATYFCARGDTGRTYDMHFNLWGQGTLVTVSS VL: AYDMTQTPASVSAAVGGTVTIKCQASESIRSWLAWYQQKPGQPPKLLIYSASTLASGVSSRFKGSGSGTQFTLTIGDLESADAATYYCQQGYTSSNLDNAFGGGTEVLVK
7 | 0.07 | 0.17 | 32 | 0.24 | 0.22 | chimeric anti-5T4 monoclonal antibody 829 (antibody, human IgG1, V domains shown) VH: QSLEESGGRLVTPGTPLTLTCTASGFSLSSYDMSWVRQAPGKGLEYIGWINSDDGAYYANWAKGRFTISRTSTTVDLKITSPTTEDTATYFCARDAGSTYLYGLDPWGPGTLVTVSS VL: DVVMTQTPSSVSAGVGGTVTIKCQASQSISSYLAWYQQKPGQRPKLLIYAASTLASGVSSRFKGSGSGTEYTLTINDLESADAATYYCQCTYYGGTYNTFGGGTEVVVK
8 | 0.05 | 0.09 | 32 | 0.17 | 0.18 | chimeric anti-5T4 monoclonal antibody 899 (antibody, human IgG1, V domains shown) VH: QSVEESGGRLVTPGTPLTLTCTVSGFSLSSYTMSWVRQAPGKGLEYIGIISSSDGTWYANWVKGRFTISKTSTTVDLKMTSLTTEDTATYFCARDGTGNKYYTWDRLDLWGQGTLVTVSS VL: NIVMTQTPSPVSGAVGGTVTINCQASQSIYNELSWYQQKPGQPPKLLIYYASTLASGVSSRFKGSGSGTQFTLTISGVESVDAATYYCQQGYSSSNVDNVFGGGTEVVVK
9 | 0.05 | 0.09 | 32 | 0.17 | 0.12 | chimeric anti-5T4 monoclonal antibody 848 (antibody, human IgG1, V domains shown) VH: QSVEESGGRLVTPGTPLTLTCTVSGFSLSSYTMSWVRQAPGKGLEWIGIISSIGSIWYASWAKGRFTISKTSTTVDLKMTSLTTEDTATYFCARDGTGSKYYTWDRLDLWGQGTLVTVSS VL: NIVMTQTPSPVSGAVGGTVTINCQASQSIYNELSWYQQKPGQPPKLLIYYTSTLASGVSSRFKGSGSGTQFTLTISGVESVDAATYYCQQGYSSSDVDNVFGGGTEVVVK
10 | 0.02 | 0.04 | 32 | 0.14 | 0.08 | chimeric anti-5T4 monoclonal antibody 833 (antibody, IgG1, V domains shown, also called clone 833) VH: QSLEESGGGLVTPGGSLTLTCTGSGIDLSHYVVGWVRQAPGKGLEWIGIIYGSGRTYYANWAKGRFTISKTSTTVDLRIARPTAEDTATYFCARDASVSVYYWGYFDLWGQGTLVTVSS VL: AYDMTQTPVSVEVAVGGTVTIKCQASQSIGSELAWYQQKPGQPPKLLIYRASTLESGVPSRFSGSGSGTEFTLTISGVESADAATYYCQQGYTYSEIDNAFGGGTEVVVK
11 | 0.05 | 0.11 | 32 | 0.2 | 0.17 | chimeric anti-5T4 monoclonal antibody 845 (antibody, human IgG1, V domains shown) VH: QSLEESGGRLVTPGTPLTLTCTVSGIDLSSYTMNWVRQAPGKGLEWIGVITSHNTYYASWAKGRFTISKTSTTVDLKITSPTTEDTATYFCARSNYGSTIYYMGGMDPWGPGTLVTVSS VL: DVVMTQTPASVSAAVGGTVTINCQASQSIGSYLAWYQHQPGQPPKLLIYSASTLESGVSSRFEGSRSGTEYTLTISDLDSADAATYYCQCTDYGASYLGAFGGGTEVVVK
12 | 0.02 | 0.1 | 32 | 0.24 | 0.14 | chimeric anti-5T4 monoclonal antibody 841 (antibody, human IgG1, V domains shown) VH: QSLEESGGRLVTPGTPLTLTCKASGFSLSTYWMSWVRQAPGKGLEWIGIMLSYGNTVYANWAKGRFTISKTSSTTVDLKITSPTTEDTATYFCARGLYGGYPNYGVYDLWGQGTLVTVSS VL: DVVMTQTPASVEAAVGGTVTIKCQASQSISSYLSWYQQKPGQPPKLLIYAASNLASGVSSRFKGSRSGTEYTLTISDLESADAATYYCQCTDYGSNYVGAFGGGTEVVVK
